Assay results taken from the supplement of paper PMC9112550, “Optimization of the antimicrobial peptide Bac7 by deep mutational scanning” (BMC Biology, 2022).

test system: Escherichia coli TOP10; assay: shrunken log2 fold change of peptide-encoding DNA abundance (4.5 h post-induction vs induction); higher = less antimicrobial activity (less host growth inhibition); conditions: time post-induction: 4.5 h; library: site-saturation at positions 5, 18, 19, 20
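Also: peptides expressed intracellularly from a pBAD plasmid library in pooled LB shake-flask culture, induced with 0.3% L-arabinose, DNA abundance read by NGS, three biological replicates, DESeq2 with apeglm shrinkage.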

Sequence	shrunken log2 fold change
RRIRFRPPRLPRPRPRPRHTPRP	-0.00169
RRIRFRPPRLPRPRPRPRICPRP	0.0102
RRIRFRPPRLPRPRPRPRKAPRP	0.182
RRIRFRPPRLPRPRPRPRKTPRP	0.0798
RRIRFRPPRLPRPRPRPRLGPRP	0.347
RRIRFRPPRLPRPRPRPRLIPRP	-0.261
RRIRFRPPRLPRPRPRPRNNPRP	-0.381
RRIRFRPPRLPRPRPRPRPMPRP	0.856
RRIRFRPPRLPRPRPRPRQHPRP	0.0181
RRIRFRPPRLPRPRPRPRRPPRP	0.668
RRIRFRPPRLPRPRPRPRSHPRP	-0.181
RRIRFRPPRLPRPRPRPRSNPRP	-0.336
RRIRFRPPRLPRPRPRPRTHPRP	0.114
RRIRFRPPRLPRPRPRPRTIPRP	-0.219
RRIRFRPPRLPRPRPRPRTKPRP	0.947
RRIRFRPPRLPRPRPRPRWMPRP	-0.149
RRIRFRPPRLPRPRPRPSAVPRP	-0.119
RRIRFRPPRLPRPRPRPSDHPRP	-0.221
RRIRFRPPRLPRPRPRPSEIPRP	-0.345
RRIRFRPPRLPRPRPRPSEMPRP	-0.148
RRIRFRPPRLPRPRPRPSHPPRP	-0.19
RRIRFRPPRLPRPRPRPSHQPRP	-0.229
RRIRFRPPRLPRPRPRPSHSPRP	-0.171
RRIRFRPPRLPRPRPRPSHVPRP	-0.281
RRIRFRPPRLPRPRPRPSHWPRP	0.0131

Sequence	shrunken log2 fold change
RRIRFRPPRLPRPRPRPSIQPRP	-0.0528
RRIRFRPPRLPRPRPRPSKIPRP	0.903
RRIRFRPPRLPRPRPRPSMLPRP	-0.47
RRIRFRPPRLPRPRPRPSMNPRP	0.274
RRIRFRPPRLPRPRPRPSMTPRP	-0.227
RRIRFRPPRLPRPRPRPSPFPRP	0.0724
RRIRFRPPRLPRPRPRPSRKPRP	-0.0267
RRIRFRPPRLPRPRPRPSRSPRP	-0.104
RRIRFRPPRLPRPRPRPSRTPRP	0.0872
RRIRFRPPRLPRPRPRPSRWPRP	0.29
RRIRFRPPRLPRPRPRPSSAPRP	-0.0032
RRIRFRPPRLPRPRPRPSWHPRP	-0.475
RRIRFRPPRLPRPRPRPSYKPRP	-0.819
RRIRFRPPRLPRPRPRPSYQPRP	-0.451
RRIRFRPPRLPRPRPRPTAHPRP	0.193
RRIRFRPPRLPRPRPRPTCDPRP	-0.0372
RRIRFRPPRLPRPRPRPTCSPRP	-0.0827
RRIRFRPPRLPRPRPRPTCTPRP	-0.0787
RRIRFRPPRLPRPRPRPTDDPRP	-0.019
RRIRFRPPRLPRPRPRPTELPRP	-0.161
RRIRFRPPRLPRPRPRPTEPPRP	0.00236
RRIRFRPPRLPRPRPRPTFWPRP	-0.0559
RRIRFRPPRLPRPRPRPTHHPRP	0.781
RRIRFRPPRLPRPRPRPTIMPRP	-0.375
RRIRFRPPRLPRPRPRPTINPRP	-0.508

Sequence	shrunken log2 fold change
RRIRFRPPRLPRPRPRPTIRPRP	-0.41
RRIRFRPPRLPRPRPRPTLEPRP	0.197
RRIRFRPPRLPRPRPRPTNEPRP	-0.264
RRIRFRPPRLPRPRPRPTNSPRP	-0.271
RRIRFRPPRLPRPRPRPTNTPRP	-0.414
RRIRFRPPRLPRPRPRPTQFPRP	0.153
RRIRFRPPRLPRPRPRPTREPRP	0.599
RRIRFRPPRLPRPRPRPTSPPRP	0.194
RRIRFRPPRLPRPRPRPTSTPRP	-0.0598
RRIRFRPPRLPRPRPRPTTCPRP	-0.19
RRIRFRPPRLPRPRPRPTTDPRP	-0.13
RRIRFRPPRLPRPRPRPTTEPRP	0.108
RRIRFRPPRLPRPRPRPTTLPRP	-0.0787
RRIRFRPPRLPRPRPRPTVKPRP	-0.163
RRIRFRPPRLPRPRPRPTWPPRP	0.422
RRIRFRPPRLPRPRPRPTYMPRP	-0.0541
RRIRFRPPRLPRPRPRPVADPRP	-0.00475
RRIRFRPPRLPRPRPRPVCMPRP	-0.498
RRIRFRPPRLPRPRPRPVDNPRP	-0.0449
RRIRFRPPRLPRPRPRPVDVPRP	-0.44
RRIRFRPPRLPRPRPRPVDWPRP	0.194
RRIRFRPPRLPRPRPRPVEFPRP	-0.591
RRIRFRPPRLPRPRPRPVEHPRP	-0.0778
RRIRFRPPRLPRPRPRPVFHPRP	-0.598
RRIRFRPPRLPRPRPRPVGHPRP	-0.0219

Sequence	shrunken log2 fold change
RRIRFRPPRLPRPRPRPVGVPRP	0.356
RRIRFRPPRLPRPRPRPVHHPRP	-0.00203
RRIRFRPPRLPRPRPRPVHIPRP	0.0681
RRIRFRPPRLPRPRPRPVHRPRP	-0.261
RRIRFRPPRLPRPRPRPVIFPRP	0.774
RRIRFRPPRLPRPRPRPVINPRP	-0.816
RRIRFRPPRLPRPRPRPVLQPRP	0.21
RRIRFRPPRLPRPRPRPVLWPRP	0.577
RRIRFRPPRLPRPRPRPVMDPRP	-0.378
RRIRFRPPRLPRPRPRPVNWPRP	0.253
RRIRFRPPRLPRPRPRPVQHPRP	-0.044
RRIRFRPPRLPRPRPRPVRDPRP	1.66
RRIRFRPPRLPRPRPRPVRFPRP	0.429
RRIRFRPPRLPRPRPRPVSQPRP	0.0413
RRIRFRPPRLPRPRPRPVSTPRP	-0.476
RRIRFRPPRLPRPRPRPVVPPRP	-0.196
RRIRFRPPRLPRPRPRPVVSPRP	0.0235
RRIRFRPPRLPRPRPRPVWRPRP	0.441
RRIRFRPPRLPRPRPRPWAGPRP	0.116
RRIRFRPPRLPRPRPRPWARPRP	-0.114
RRIRFRPPRLPRPRPRPWESPRP	-0.037
RRIRFRPPRLPRPRPRPWGCPRP	-0.225
RRIRFRPPRLPRPRPRPWIAPRP	-0.0534
RRIRFRPPRLPRPRPRPWITPRP	-0.192
RRIRFRPPRLPRPRPRPWLAPRP	2.73

Sequence	shrunken log2 fold change
RRIRFRPPRLPRPRPRPWLRPRP	-0.0551
RRIRFRPPRLPRPRPRPWMKPRP	-0.0336
RRIRFRPPRLPRPRPRPWNDPRP	-0.243
RRIRFRPPRLPRPRPRPWNIPRP	-0.0965
RRIRFRPPRLPRPRPRPWPFPRP	-0.455
RRIRFRPPRLPRPRPRPWQDPRP	-0.00804
RRIRFRPPRLPRPRPRPWQEPRP	-0.2
RRIRFRPPRLPRPRPRPWQNPRP	-0.00226
RRIRFRPPRLPRPRPRPWRWPRP	0.0911
RRIRFRPPRLPRPRPRPWTSPRP	-0.0445
RRIRFRPPRLPRPRPRPWVVPRP	0.0143
RRIRFRPPRLPRPRPRPWYCPRP	-0.706
RRIRFRPPRLPRPRPRPWYTPRP	-0.38
RRIRFRPPRLPRPRPRPYAAPRP	-0.586
RRIRFRPPRLPRPRPRPYATPRP	-0.419
RRIRFRPPRLPRPRPRPYDGPRP	-0.18
RRIRFRPPRLPRPRPRPYDPPRP	-0.0102
RRIRFRPPRLPRPRPRPYDWPRP	-0.147
RRIRFRPPRLPRPRPRPYFGPRP	-1.15
RRIRFRPPRLPRPRPRPYFLPRP	-0.628
RRIRFRPPRLPRPRPRPYGCPRP	-0.531
RRIRFRPPRLPRPRPRPYGRPRP	-0.0926
RRIRFRPPRLPRPRPRPYICPRP	-0.4
RRIRFRPPRLPRPRPRPYITPRP	-0.906
RRIRFRPPRLPRPRPRPYKQPRP	-0.83

Sequence	shrunken log2 fold change
RRIRFRPPRLPRPRPRPYLSPRP	-1.86
RRIRFRPPRLPRPRPRPYNWPRP	-0.0539
RRIRFRPPRLPRPRPRPYQDPRP	-0.151
RRIRFRPPRLPRPRPRPYSCPRP	-0.388
RRIRFRPPRLPRPRPRPYSLPRP	-0.00881
RRIRFRPPRLPRPRPRPYSSPRP	-0.571
RRIRFRPPRLPRPRPRPYTLPRP	-1.21
RRIRFRPPRLPRPRPRPYTTPRP	-0.333
RRIRFRPPRLPRPRPRPYTVPRP	-0.00354
RRIRFRPPRLPRPRPRPYVSPRP	-0.438
RRIRFRPPRLPRPRPRPYVYPRP	-0.196
RRIRFRPPRLPRPRPRPYYMPRP	-0.505
RRIRFRPPRLPRPRPRPYYPPRP	-1.19
RRIRFRPPRLPRPRPRPYYTPRP	-0.369
RRIRFRPPRLPRPRPRPYYYPRP	-0.392
RRIRGRPPRLPRPRPRPAAIPRP	0.953
RRIRGRPPRLPRPRPRPADGPRP	-0.133
RRIRGRPPRLPRPRPRPAEMPRP	0.621
RRIRGRPPRLPRPRPRPAEWPRP	0.542
RRIRGRPPRLPRPRPRPAGCPRP	0.973
RRIRGRPPRLPRPRPRPAGLPRP	0.479
RRIRGRPPRLPRPRPRPAIAPRP	0.91
RRIRGRPPRLPRPRPRPAILPRP	-0.0316
RRIRGRPPRLPRPRPRPAKPPRP	0.82
RRIRGRPPRLPRPRPRPAKVPRP	0.431
